Data on 6 molecules can be found in US11994512B2, “Single-cell genomic methods to generate ex vivo cell systems that recapitulate in vivo biology with improved fidelity” (Massachusetts Institute of Technology, priority 2018, dated 2024).

The experiment relates to intracellular proteome of ENR+CD and ENR organoids. Kind of experiment: LC-MS/MS TMT proteomics of ENR+CD versus ENR organoids. The note with it: for Average logFC: ENR+CD versus ENR organoids, sample pairs in aggregate (n=4, 2 technical replicates from two biological donors); for M1-1 Log2 Median Normalized / M1-2 Log2 Median Normalized / M2-1 Log2 Median Normalized / M2-2 Log2 Median Normalized: protein abundance ratio ENR+CD versus ENR organoids, LC-MS/MS TMT proteomics; for M1-1 Log2 Median Normalized: sample pair M1-1; for M1-2 Log2 Median Normalized: sample pair M1-2; for M2-1 Log2 Median Normalized: sample pair M2-1; for M2-2 Log2 Median Normalized: sample pair M2-2; for change: up = enriched in ENR+CD, down = enriched in ENR, FDR<0.05 and log fold change cut-off. It is filed as cell-based, C57BL/6 mice.

B1: Q8CAB8 (protein, UniProt Q8CAB8 1-329, looked up)
chain: MELHILEHRLQVASVAKESIPLFTYGLIKLAFLSSKTRCKFFSLTETPEDYTIIVDEEGFLELPSSEHLSVADATWLALNVVSGGGSFSSSQPIGVTKIAKSVIAPLADQNISVFMLSTYQTDFILVRERDLPFVTHTLSSEFTILRVVNGETVAAENLSFTNGFVKPKMVQRPVIHPLSSPSNRFCVTSLDPDTLPAVATLLMDVMFYSNGVKDPMAASDDCGHIRFFSFSLIEGYISLVMDVQTQQRFPSHLLFTSASGELWKMVRIGGQPLGFDECGIVAQISEPLAAADIPAYYISTFKFDHALVPEENISGVIHALKVSQAGKH
modifications: full-length
Turning to B1, the “Average logFC” value is reported as 1.494, the “M1-1 Log2 Median Normalized” value stood at 1.555, the “M1-2 Log2 Median Normalized” value was found to be 0.678 and the “M2-1 Log2 Median Normalized” value is given as 1.5715. Also, the “M2-2 Log2 Median Normalized” value came out at 1.494 and the change result is listed as “up”.

B2: Q8CGK7 (protein, UniProt Q8CGK7 1-381, looked up)
chain: MGCLGNSSKTAEDQGVDEKERREANKKIEKQLQKERLAYKATHRLLLLGAGESGKSTIVKQMRILHVNGFNPEEKKQKILDIRKNVKDAIVTIVSAMSTIIPPVPLANPENQFRSDYIKSIAPITDFEYSQEFFDHVKKLWDDEGVKACFERSNEYQLIDCAQYFLERIDSVSLVDYTPTDQDLLRCRVLTSGIFETRFQVDKVNFHMFDVGGQRDERRKWIQCFNDVTAIIYVAACSSYNMVIREDNNTNRLRESLDLFESIWNNRWLRTISIILFLNKQDMLAEKVLAGKSKIEDYFPEYANYTVPEDATPDAGEDPKVTRAKFFIRDLFLRISTATGDGKHYCYPHFTCAVDTENIRRVFNDCRDIIQRMHLKQYELL
modifications: full-length
Turning to B2, the “Average logFC” value is given as −1.357, the “M1-1 Log2 Median Normalized” value is given as −1.028, the “M1-2 Log2 Median Normalized” value was −1.1 and the “M2-1 Log2 Median Normalized” value is −1.4805. The “M2-2 Log2 Median Normalized” value is reported as −1.82 and the change entry was “down”.

B3: Q8C196 (protein, UniProt Q8C196 1-1500, looked up)
chain: MTRILTACKVVKTLKSGFGFANVTTKRQWDFSRPGIRLLSVKAKTAHIVLEDGTKMKGYSFGHPSSVAGEVVFNTGLGGYPEALTDPAYKGQILTMANPIIGNGGAPDTTARDELGLNKYMESDGIKVAGLLVLNYSNDYNHWLATKSLGQWLQEEKVPAIYGVDTRMLTKIIRDKGTMLGKIEFEGQSVDFVDPNKQNLIAEVSTKDVKVFGKGNPTKVVAVDCGIKNNVIRLLVKRGAEVHLVPWNHDFTQMEYDGLLIAGGPGNPALAQPLIQNVKKILESDRKEPLFGISTGNIITGLAAGAKSYKMSMANRGQNQPVLNITNRQAFITAQNHGYALDNTLPAGWKPLFVNVNDQTNEGIMHESKPFFAVQFHPEVSPGPTDTEYLFDSFFSLIKKGKGTTITSVLPKPALVASRVEVSKVLILGSGGLSIGQAGEFDYSGSQAVKAMKEENVKTVLMNPNIASVQTNEVGLKQADAVYFLPITPQFVTEVIKAERPDGLILGMGGQTALNCGVELFKRGVLKEYGVKVLGTSVESIMATEDRQLFSDKLNEINEKIAPSFAVESMEDALKAADTIGYPVMIRSAYALGGLGSGICPNKETLIDLGTKAFAMTNQILVERSVTGWKEIEYEVVRDADDNCVTVCNMENVDAMGVHTGDSVVVAPAQTLSNAEFQMLRRTSVNVVRHLGIVGECNIQFALHPTSMEYCIIEVNARLSRSSALASKATGYPLAFIAAKIALGIPLPEIKNVVSGKTSACFEPSLDYMVTKIPRWDLDRFHGTSSRIGSSMKSVGEVMAIGRTFEESFQKALRMCHPSVDGFTPRLPMNKEWPANLDLKKELSEPSSTRIYAIAKALENNMSLDEIVRLTSIDKWFLYKMRDILNMDKTLKGLNSDSVTEETLRKAKEIGFSDKQISKCLGLTEAQTRELRLKKNIHPWVKQIDTLAAEYPSVTNYLYVTYNGQEHDIKFDEHGIMVLGCGPYHIGSSVEFDWCAVSSIRTLRQLGKKTVVVNCNPETVSTDFDECDKLYFEELSLERILDIYHQEACNGCIISVGGQIPNNLAVPLYKNGVKIMGTSPLQIDRAEDRSIFSAVLDELKVAQAPWKAVNTLNEALEFANSVGYPCLLRPSYVLSGSAMNVVFSEDEMKRFLEEATRVSQEHPVVLTKFVEGAREVEMDAVGKEGRVISHAISEHVEDAGVHSGDATLMLPTQTISQGAIEKVKDATRKIAKAFAISGPFNVQFLVKGNDVLVIECNLRASRSFPFVSKTLGVDFIDVATKVMIGESIDEKRLPTLEQPIIPSDYVAIKAPMFSWPRLRDADPILRCEMASTGEVACFGEGIHTAFLKAMLSTGFKIPQKGILIGIQQSFRPRFLGVAEQLHNEGFKLFATEATSDWLNANNVPATPVAWPSQEGQNPSLSSIRKLIRDGSIDLVINLPNNNTKFVHDNYVIRRTAVDSGIALLTNFQVTKLFAEAVQKSRTVDSKSLFHYRQYSAGKAA
modifications: full-length
Take B3: the “Average logFC” value is −1.21, the “M1-1 Log2 Median Normalized” value is given as −1.302, the “M1-2 Log2 Median Normalized” value was −0.76 and the “M2-1 Log2 Median Normalized” value is −1.9525. Further, the “M2-2 Log2 Median Normalized” value is reported as −0.825 and the change entry is given as “down”.

B4: Q8C5N3 (protein, UniProt Q8C5N3 1-908, looked up)
chain: MKSSVAHMKSSGHNRRETHSSYRRSSSPEDRYTEQERSPRDRGYSDYSRSDYERSRRGYSYDDSMESRSRDREKRRERERDADHRKRSRKSPSPDRSPARGGGQSSPQEEPTWKKKKDELDPLLTRTGGAYIPPAKLRMMQEQITDKSSLAYQRMSWEALKKSINGLINKVNISNISIIIQELLQENIVRGRGLLSRSVLQAQSASPIFTHVYAALVAIINSKFPQIGELILKRLILNFRKGYRRNDKQLCLTASKFVAHLINQNVAHEVLCLEMLTLLLERPTDDSVEVAIGFLKECGLKLTQVSPRGINAIFERLRNILHESEIDKRVQYMIEVMFAVRKDGFKDHPVILEGLDLVEEDDQFTHMLPLEDDYNPEDVLNVFKMDPNFMENEEKYKAIKKEILDEGDSDSNTDQGAGSSEDEEEEDEEEEGEDEEGGQKVTIHDKTEINLVSFRRTIYLAIQSSLDFEECAHKLLKMEFAESQTKELCNMILDCCAQQRTYEKFFGLLAGRFCMLKKEYMESFESIFKEQYDTIHRLETNKLRNVAKMFAHLLYTDSLPWSVLECIKLSEETTTSSSRIFVKIFFQELCEYMGLPKLNARLKDETLQPFFEGLLPRDNPRNTRFAINFFTSIGLGGLTDELREHLKNTPKVIVAQKPEAEQKKPALTSSSSESSSASDSSDSESDSSESSSESSSDASDSSSSSSTQSSTSGITAHSAKGTRKKRQGKARGEEVDKLARGHQALERRREGGREDQRHQEGRTERARSERRRAQNSRDADWRDPLAKHIDDRSHENSHSRVGNGREQGSHREPEDRHGEPKKRRERRDSFSENEKQRSRNQDSDNVRRKDRSKSRERSRRHSGHKGDDARCQNSAERRWEKPGRRPEQSRESKRSQDRRREKSPTTQK
modifications: full-length
Consider B4, for which the “Average logFC” value is −1.281, the “M1-1 Log2 Median Normalized” value is −1.581, the “M1-2 Log2 Median Normalized” value was −0.922 and the “M2-1 Log2 Median Normalized” value was −0.9735. The “M2-2 Log2 Median Normalized” value was −1.648 and the change result is “down”.

B5: Q8C2E4 (protein, UniProt Q8C2E4 1-695, looked up)
chain: MDLLRLSRLFSGPRPIGLSVLQHLDLVGSTRWTGGREGPARLRAAFCGSSSPLPLGSGNQKEMSSLCSDSSKLSTVAPQEEAEEESFGSLSGKFSSRRIFHKSTAQLYNLQLKEQGGEEEELEPRPWRGRRNTQYWYFFQCKRLIKEGKLAEALDLFERQMLKEERLQPLECNYTVLIGGCGRVGYLKKAFRLFNDMKKRDLEPSDATYTALFNVCAESPWKDSALQSALKLRQQLQARNFQLNLKTYHALLKVAAKCADLRLCLDVFKEIIQRGHAVTEETFCFLLVGCIQDKKTGFRQAMQVWRQMLSLGIKPSRHGYNLLLEAARDCGLGDPEVASRLLLTSQEETILLPPPKGRHMAGRKVQAKTVHGVSLRHVEALERQLFLEPSQKLEGPPALPEARVTSRTQPEVETTAEPGHTVALTPLASKPTHLELEVSLLSLGTLSPAVVSFGTVATPADRLALMGGLEGFLGKMTEHGLQPDIKTLTLLAEVVEPGSTAESSLLSVLDRHRVEADVTFFNTLIRKKSKLGDLEGAKALLPILAKKGIVPNLRTFCNLAIGCHRPRDGMQLLADMKKSQVSPNIHIYSTLINAALKKLDYTYLISILKDMRQNSVPVNEVVVRQLEFAAEYPPTFDRYKGKNTYLEKIDGFRAYYKQWLKAMPAEEAPHPWQEFQNKPVGDQDTTDKAGGLRDG
modifications: full-length
In the case of B5, the “Average logFC” value is on record as −1.79, the “M1-1 Log2 Median Normalized” value is −1.411, the “M1-2 Log2 Median Normalized” value is recorded as −1.637 and the “M2-1 Log2 Median Normalized” value is −1.8825. In addition, the “M2-2 Log2 Median Normalized” value is −2.231 and the change result is reported as “down”.

B6: Q8CFC7 (protein, UniProt Q8CFC7 1-668, looked up)
chain: MWHEARKHERKLRGMMVDYKKRAERRREYYEKIKKDPAQFLQVHGRACKVHLDSAVALAAESPVNMMPWQGDTNNMIDRFDVRAHLDHIPDYTPPLLTTISPEQESDERKCNYERYRGLVQNDFAGISEEQCLYQIYIDELYGGLQRPSEDEKKKLAEKKASIGYTYEDSTVAEVEKVAEKPEEEESPAEEESNSDEDEVIPDIDVEVDVDELNQEQVADLNKQATTYGMADGDFVRMLRKDKEEAEAIKHAKALEEEKAMYSGRRSRRQRREFREKRLRGRKISPPSYARRDSPTYDPYKRSPSESSSESRSRSRSPSPGREEKITFITSFGGSDEEAAAAAAAAAASGAAPGKPPAPPQTGGPAPGRNASTRRRSSSSSASRTSSSRSSSRSSSRSRRGYYRSGRHARSRSRSWSRSRSRSRRYSRSRSRGRRHSDGGSRDGHRYSRSPARRGGYVPRRRSRSRSRSGDRYKRGARGPRHHSSSHSRSSWSLSPSRSRSVTRSGSRSQSRSRSRSQSHSQSQSHSPSPPREKLTRPAASPAVGEKLKKTEPAAGKETGAAKPKLTPQERLKLRMQKALNRQFKADKKAAQEKMIQQEHERQEREDELRAMARKIRMKERERREKEREEWERQYSRQSRSPSPRYSREYSSSRRRSRSRSRSPHYRH
modifications: full-length
For B6, the “Average logFC” value is −1.139, the “M1-1 Log2 Median Normalized” value is −1.219, the “M1-2 Log2 Median Normalized” value is −0.633 and the “M2-1 Log2 Median Normalized” value was −0.8625. In addition, the “M2-2 Log2 Median Normalized” value is on record as −1.84 and the change entry is listed as “down”.
